Source: PMC10397247
Blank lines part the entries; values can stand above or below the binder they belong to.

Experiments:
4H2585-bN = target: T1, 4H2585-bN; experiment: two-hybrid library CCNG1;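 note: natural log of median RNA to DNA barcode read ratio; higher means stronger binding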
T1 chain: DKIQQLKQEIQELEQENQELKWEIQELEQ

4H264-bN = target: T2, 4H264-bN; experiment: two-hybrid library CCNG1;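 note: natural log of median RNA to DNA barcode read ratio; higher means stronger binding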
T2 chain: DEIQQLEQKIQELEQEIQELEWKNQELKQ

4H2760-bN = target: T3, 4H2760-bN; experiment: two-hybrid library CCNG1;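 note: natural log of median RNA to DNA barcode read ratio; higher means stronger binding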
T3 chain: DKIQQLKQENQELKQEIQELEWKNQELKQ

4H2859-bN = target: T4, 4H2859-bN; experiment: two-hybrid library CCNG1;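 note: natural log of median RNA to DNA barcode read ratio; higher means stronger binding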
T4 chain: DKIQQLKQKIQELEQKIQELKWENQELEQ

4H2931-bN = target: T5, 4H2931-bN; experiment: two-hybrid library CCNG1;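 note: natural log of median RNA to DNA barcode read ratio; higher means stronger binding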
T5 chain: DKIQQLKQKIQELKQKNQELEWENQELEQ

4H3041-bN = target: T6, 4H3041-bN; experiment: two-hybrid library CCNG1;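 note: natural log of median RNA to DNA barcode read ratio; higher means stronger binding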
T6 chain: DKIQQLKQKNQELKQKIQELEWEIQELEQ

4H3297-bN = target: T7, 4H3297-bN; experiment: two-hybrid library CCNG1
T7 chain: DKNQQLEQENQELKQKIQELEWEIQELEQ

4H3364-bN = target: T8, 4H3364-bN; experiment: two-hybrid library CCNG1
T8 chain: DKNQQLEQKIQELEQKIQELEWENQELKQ

4H3381-bN = target: T9, 4H3381-bN; experiment: two-hybrid library CCNG1
T9 chain: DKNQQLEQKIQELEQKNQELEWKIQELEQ

4H346-bN = target: T10, 4H346-bN; experiment: two-hybrid library CCNG1
T10 chain: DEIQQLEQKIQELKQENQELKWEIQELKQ

4H349-bN = target: T11, 4H349-bN; experiment: two-hybrid library CCNG1
T11 chain: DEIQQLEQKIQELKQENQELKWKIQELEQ

4H56-bN = target: T12, 4H56-bN; experiment: two-hybrid library CCNG1
T12 chain: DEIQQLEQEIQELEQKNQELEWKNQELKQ

4H730-bN = target: T13, 4H730-bN; experiment: two-hybrid library CCNG1
T13 chain: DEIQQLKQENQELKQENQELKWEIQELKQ

4H796-bN = target: T14, 4H796-bN; experiment: two-hybrid library CCNG1
T14 chain: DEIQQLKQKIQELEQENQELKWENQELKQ

4H932-bN = target: T15, 4H932-bN; experiment: two-hybrid library CCNG1
T15 chain: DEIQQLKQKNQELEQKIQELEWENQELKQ

4H949-bN = target: T16, 4H949-bN; experiment: two-hybrid library CCNG1
T16 chain: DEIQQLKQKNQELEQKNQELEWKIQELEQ

4H1594-AA = target: T17, 4H1594-AA; experiment: two-hybrid library CCmax
T17 chain: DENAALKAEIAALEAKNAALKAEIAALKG

4H1629-AA = target: T18, 4H1629-AA; experiment: two-hybrid library CCmax; settings: mean of both orientations
T18 chain: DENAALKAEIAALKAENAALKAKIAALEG

4H1845-AA = target: T19, 4H1845-AA; experiment: two-hybrid library CCmax; settings: mean of both orientations
T19 chain: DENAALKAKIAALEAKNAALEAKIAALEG

4H1874-AA = target: T20, 4H1874-AA; experiment: two-hybrid library CCmax; settings: mean of both orientations
T20 chain: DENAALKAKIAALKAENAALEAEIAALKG

4H2198-AA = target: T21, 4H2198-AA; experiment: two-hybrid library CCmax; settings: mean of both orientations
T21 chain: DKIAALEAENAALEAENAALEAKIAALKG

4H2553-AA = target: T22, 4H2553-AA; experiment: two-hybrid library CCmax; settings: mean of both orientations
T22 chain: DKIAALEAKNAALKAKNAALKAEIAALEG

4H2611-AA = target: T23, 4H2611-AA; experiment: two-hybrid library CCmax; settings: mean of both orientations
T23 chain: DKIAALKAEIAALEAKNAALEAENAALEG

4H2620-AA = target: T24, 4H2620-AA; experiment: two-hybrid library CCmax; settings: mean of both orientations
T24 chain: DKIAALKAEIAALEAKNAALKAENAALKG

4H2648-AA = target: T25, 4H2648-AA; experiment: two-hybrid library CCmax; settings: mean of both orientations
T25 chain: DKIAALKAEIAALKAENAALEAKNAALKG

4H2907-AA = target: T26, 4H2907-AA; experiment: two-hybrid library CCmax; settings: mean of both orientations
T26 chain: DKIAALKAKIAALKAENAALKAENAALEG

4H3056-AA = target: T27, 4H3056-AA; experiment: two-hybrid library CCmax; settings: mean of both orientations
T27 chain: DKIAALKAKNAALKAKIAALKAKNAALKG

4H3133-AA = target: T28, 4H3133-AA; experiment: two-hybrid library CCmax; settings: mean of both orientations
T28 chain: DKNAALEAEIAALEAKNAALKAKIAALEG

4H3162-AA = target: T29, 4H3162-AA; experiment: two-hybrid library CCmax; settings: mean of both orientations
T29 chain: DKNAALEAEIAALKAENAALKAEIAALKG

4H32-AA = target: T30, 4H32-AA; experiment: two-hybrid library CCmax; settings: mean of both orientations
T30 chain: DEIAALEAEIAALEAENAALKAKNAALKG

4H3378-AA = target: T31, 4H3378-AA; experiment: two-hybrid library CCmax; settings: mean of both orientations
T31 chain: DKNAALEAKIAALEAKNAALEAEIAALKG

4H340-AA = target: T32, 4H340-AA; experiment: two-hybrid library CCmax; settings: mean of both orientations
T32 chain: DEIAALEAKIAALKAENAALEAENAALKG

4H3413-AA = target: T33, 4H3413-AA; experiment: two-hybrid library CCmax; settings: mean of both orientations
T33 chain: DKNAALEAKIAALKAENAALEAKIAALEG

4H3588-AA = target: T34, 4H3588-AA; experiment: two-hybrid library CCmax; settings: mean of both orientations
T34 chain: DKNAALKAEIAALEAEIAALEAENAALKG

4H3606-AA = target: T35, 4H3606-AA; experiment: two-hybrid library CCmax; settings: mean of both orientations
T35 chain: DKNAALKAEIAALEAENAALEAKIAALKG

4H3631-AA = target: T36, 4H3631-AA; experiment: two-hybrid library CCmax; settings: mean of both orientations
T36 chain: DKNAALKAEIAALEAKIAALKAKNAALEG

4H3697-AA = target: T37, 4H3697-AA; experiment: two-hybrid library CCmax; settings: mean of both orientations
T37 chain: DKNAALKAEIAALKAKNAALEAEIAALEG

4H3718-AA = target: T38, 4H3718-AA; experiment: two-hybrid library CCmax
T38 chain: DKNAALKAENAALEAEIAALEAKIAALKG

4H384-AA = target: T39, 4H384-AA; experiment: two-hybrid library CCmax; settings: mean of both orientations
T39 chain: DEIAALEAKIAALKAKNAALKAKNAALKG

4H3865-AA = target: T40, 4H3865-AA; experiment: two-hybrid library CCmax; settings: mean of both orientations
T40 chain: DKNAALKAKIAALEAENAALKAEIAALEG

4H697-AA = target: T41, 4H697-AA; experiment: two-hybrid library CCmax; settings: mean of both orientations
T41 chain: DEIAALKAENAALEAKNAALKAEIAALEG

4H982-AA = target: T42, 4H982-AA; experiment: two-hybrid library CCmax; settings: mean of both orientations
T42 chain: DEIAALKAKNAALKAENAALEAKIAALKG

4H2627-bA = target: T43, 4H2627-bA; experiment: two-hybrid library CCNG1
T43 chain: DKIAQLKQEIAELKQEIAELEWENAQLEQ

4H2673-bA = target: T44, 4H2673-bA; experiment: two-hybrid library CCNG1
T44 chain: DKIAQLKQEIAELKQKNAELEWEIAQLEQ

4H2702-bA = target: T45, 4H2702-bA; experiment: two-hybrid library CCNG1
T45 chain: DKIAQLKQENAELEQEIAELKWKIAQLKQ

4H3010-bA = target: T46, 4H3010-bA; experiment: two-hybrid library CCNG1
T46 chain: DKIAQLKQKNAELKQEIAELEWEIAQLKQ

4H3112-bA = target: T47, 4H3112-bA; experiment: two-hybrid library CCNG1
T47 chain: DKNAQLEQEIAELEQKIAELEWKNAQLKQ

4H3427-bA = target: T48, 4H3427-bA; experiment: two-hybrid library CCNG1
T48 chain: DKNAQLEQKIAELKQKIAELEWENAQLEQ

4H346-bA = target: T49, 4H346-bA; experiment: two-hybrid library CCNG1
T49 chain: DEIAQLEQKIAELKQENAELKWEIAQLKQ

4H3926-bA = target: T50, 4H3926-bA; experiment: two-hybrid library CCNG1
T50 chain: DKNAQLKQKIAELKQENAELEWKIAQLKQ

4H4073-bA = target: T51, 4H4073-bA; experiment: two-hybrid library CCNG1
T51 chain: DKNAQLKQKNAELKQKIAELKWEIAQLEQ

4H457-bA = target: T52, 4H457-bA; experiment: two-hybrid library CCNG1; settings: mean of both orientations
T52 chain: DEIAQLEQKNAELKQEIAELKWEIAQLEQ

4H575-bA = target: T53, 4H575-bA; experiment: two-hybrid library CCNG1
T53 chain: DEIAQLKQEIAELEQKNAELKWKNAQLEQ

4H683-bA = target: T54, 4H683-bA; experiment: two-hybrid library CCNG1
T54 chain: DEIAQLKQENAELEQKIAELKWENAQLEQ

4H754-bA = target: T55, 4H754-bA; experiment: two-hybrid library CCNG1
T55 chain: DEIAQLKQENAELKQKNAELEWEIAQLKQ

4H780-bA = target: T56, 4H780-bA; experiment: two-hybrid library CCNG1
T56 chain: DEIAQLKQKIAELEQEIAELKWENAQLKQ

4H797-bA = target: T57, 4H797-bA; experiment: two-hybrid library CCNG1
T57 chain: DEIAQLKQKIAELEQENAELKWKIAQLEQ

4H855-bA = target: T58, 4H855-bA; experiment: two-hybrid library CCNG1
T58 chain: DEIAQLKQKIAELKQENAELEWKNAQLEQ

4H918-bA = target: T59, 4H918-bA; experiment: two-hybrid library CCNG1
T59 chain: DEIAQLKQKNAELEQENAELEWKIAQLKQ

4H953-bA = target: T60, 4H953-bA; experiment: two-hybrid library CCNG1
T60 chain: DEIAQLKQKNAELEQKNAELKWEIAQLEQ

4H968-bA = target: T61, 4H968-bA; experiment: two-hybrid library CCNG1
T61 chain: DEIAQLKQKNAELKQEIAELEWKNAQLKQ

interaction score (4H2585-bN): -0.804
interaction score (4H264-bN): -0.828
interaction score (4H2760-bN): -1.01
interaction score (4H2859-bN): 0.161
interaction score (4H2931-bN): -0.905
interaction score (4H3041-bN): -0.321
interaction score (4H3297-bN): -0.64
interaction score (4H3364-bN): -0.855
interaction score (4H3381-bN): -2.06
interaction score (4H346-bN): 2.36
interaction score (4H349-bN): 1.61
interaction score (4H56-bN): -0.978
interaction score (4H730-bN): -0.949
interaction score (4H796-bN): -0.881
interaction score (4H932-bN): -1.52
interaction score (4H949-bN): -0.975
Binder: DKIQQLKQEIQELEQENQELKWEIQELEQ [4H2585-bN]

interaction score (4H1594-AA): 1.19
interaction score (4H1629-AA): -0.822
interaction score (4H1845-AA): -0.968
interaction score (4H1874-AA): 2.24
interaction score (4H2198-AA): -1.61
interaction score (4H2553-AA): -1.6
interaction score (4H2611-AA): -1.7
interaction score (4H2620-AA): -1.5
interaction score (4H2648-AA): -0.627
interaction score (4H2907-AA): -1.36
interaction score (4H3056-AA): -2.01
interaction score (4H3133-AA): -2.2
interaction score (4H3162-AA): 0.0257
interaction score (4H32-AA): -1.19
interaction score (4H3378-AA): -0.189
interaction score (4H340-AA): 0.908
interaction score (4H3413-AA): 1.73
interaction score (4H3588-AA): -1.26
interaction score (4H3606-AA): 1.96
interaction score (4H3631-AA): -1.31
interaction score (4H3697-AA): 0.415
interaction score (4H3718-AA): -1.13
interaction score (4H384-AA): -1.64
interaction score (4H3865-AA): 1.15
interaction score (4H697-AA): -2.03
interaction score (4H982-AA): 1.3
Binder: DENAALKAEIAALEAKNAALKAEIAALKG [4H1594-AA]

interaction score (4H2627-bA): 0.441
interaction score (4H2673-bA): -0.531
interaction score (4H2702-bA): 0.286
interaction score (4H3010-bA): -0.0123
interaction score (4H3112-bA): 0.764
interaction score (4H3427-bA): 1.03
interaction score (4H346-bA): -1.21
interaction score (4H3926-bA): -0.308
interaction score (4H4073-bA): 1.07
interaction score (4H457-bA): -0.508
interaction score (4H575-bA): 0.64
interaction score (4H683-bA): -0.856
interaction score (4H754-bA): -1.42
interaction score (4H780-bA): -0.421
interaction score (4H797-bA): -1.1
interaction score (4H855-bA): -1.42
interaction score (4H918-bA): -1.03
interaction score (4H953-bA): -0.555
interaction score (4H968-bA): -0.842
Binder: DKIAQLKQEIAELKQEIAELEWENAQLEQ [4H2627-bA]
